The record followed here is patent US20050025760A1 (KEIO UNIVERSITY, published 2005).

For one test, the target named is T1, Dsg3-M4 (human, UniProt P32926 50-615, E70V; S73F).
T1 construct: extracellular domain; also called point-mutated human Dsg3 molecule M4; not shown: His tag of vector pEVmod-His
T1 sequence (looked up): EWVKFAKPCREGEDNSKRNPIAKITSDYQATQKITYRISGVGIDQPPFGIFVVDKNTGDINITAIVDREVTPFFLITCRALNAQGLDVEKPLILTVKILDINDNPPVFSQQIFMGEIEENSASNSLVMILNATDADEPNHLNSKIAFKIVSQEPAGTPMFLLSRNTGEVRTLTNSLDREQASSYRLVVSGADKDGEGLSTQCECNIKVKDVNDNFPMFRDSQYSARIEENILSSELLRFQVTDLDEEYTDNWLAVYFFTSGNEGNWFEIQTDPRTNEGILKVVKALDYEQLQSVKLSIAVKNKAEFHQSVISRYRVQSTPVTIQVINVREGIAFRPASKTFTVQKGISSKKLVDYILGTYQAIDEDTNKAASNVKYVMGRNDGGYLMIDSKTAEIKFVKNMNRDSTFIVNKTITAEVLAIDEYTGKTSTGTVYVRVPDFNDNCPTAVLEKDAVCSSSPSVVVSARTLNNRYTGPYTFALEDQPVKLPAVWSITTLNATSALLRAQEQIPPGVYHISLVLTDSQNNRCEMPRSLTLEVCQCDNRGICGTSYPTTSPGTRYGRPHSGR
The experiment in a line: immunoprecipitation of point-mutated molecules (FIG. 5).

The target in the next test is T2, Dsg1-M1-2 (human, UniProt Q02413 50-545, H25T; C28Y; A29Q; N31T; Q33K; V34I).
T2 construct: extracellular domain; Dsg1-specific residues changed to the Dsg3-specific ones; also called hDsg1-M1-2
T2 sequence (looked up): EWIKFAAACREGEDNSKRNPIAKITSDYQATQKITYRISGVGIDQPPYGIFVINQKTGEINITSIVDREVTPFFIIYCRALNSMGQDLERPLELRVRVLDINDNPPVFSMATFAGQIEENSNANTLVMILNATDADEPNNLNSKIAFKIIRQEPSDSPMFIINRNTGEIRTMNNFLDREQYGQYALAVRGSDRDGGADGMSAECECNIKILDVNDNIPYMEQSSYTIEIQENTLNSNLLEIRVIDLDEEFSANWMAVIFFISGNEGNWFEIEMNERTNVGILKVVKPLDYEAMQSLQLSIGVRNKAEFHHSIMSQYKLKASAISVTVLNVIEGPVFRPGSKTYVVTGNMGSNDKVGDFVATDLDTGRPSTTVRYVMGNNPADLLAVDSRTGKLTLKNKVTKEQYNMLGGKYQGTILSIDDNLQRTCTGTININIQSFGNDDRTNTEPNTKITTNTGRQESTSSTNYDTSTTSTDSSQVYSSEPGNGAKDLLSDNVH
The description is as above.

Test [1] concerns the target T3, recombinant protein human Dsg3-His (human, UniProt P32926 50-615).
T3 construct: extracellular domain; Baculovirus product; also called recombinant human Dsg3; not shown: C-terminal His tag
T3 sequence (looked up): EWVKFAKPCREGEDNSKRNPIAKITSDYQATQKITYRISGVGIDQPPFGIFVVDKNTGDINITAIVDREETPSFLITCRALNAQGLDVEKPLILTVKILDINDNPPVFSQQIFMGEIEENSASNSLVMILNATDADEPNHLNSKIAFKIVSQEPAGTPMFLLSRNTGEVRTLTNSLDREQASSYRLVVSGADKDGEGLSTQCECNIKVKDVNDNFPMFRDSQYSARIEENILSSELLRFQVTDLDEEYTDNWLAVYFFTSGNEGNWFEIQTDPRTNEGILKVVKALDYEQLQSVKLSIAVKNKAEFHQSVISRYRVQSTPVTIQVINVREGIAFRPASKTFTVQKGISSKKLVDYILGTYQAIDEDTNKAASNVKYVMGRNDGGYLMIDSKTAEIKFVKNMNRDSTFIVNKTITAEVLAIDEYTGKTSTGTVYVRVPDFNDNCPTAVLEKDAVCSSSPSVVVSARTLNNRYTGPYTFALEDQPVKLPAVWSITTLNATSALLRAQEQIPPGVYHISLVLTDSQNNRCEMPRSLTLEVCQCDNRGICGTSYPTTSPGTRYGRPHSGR
The experiment in a line: ELISA on recombinant human Dsg3-His. The source says:
The baculovirus vectors, pEVmod-Dsg3-His and pEVmod-Dsg1-His, pEVmod-mouse Dsg3-His and pEVmod-mouse Dsg1 -His, that were constructed according to the method as described previously (J. Immunol. 159, 2010-2017, 1997) were used. These recombinant baculoviruses were infected to insect cells, High Five (Invitrogen Corporation), then the recombinant protein human Dsg3-His and Dsg1-His, recombinant protein mouse Dsg3-His and Dsg1-His were collected from the culture media, respectively. In addition, purification of these recombinant proteins was conducted using Ni-NTA column. These purified recombinant proteins were coated on ELISA (Enzyme Linked Immunosorbent Assay) plates, respectively, 50 μl each of the culture supernatant of the anti-Dsg3 monoclonal antibody-producing hybridoma was added to each well, and ELISA was practiced according to the method as previously described (J Clin Invest 105, 625-631, 2000). PV mouse model 1 serum with moderate degree of antibody titer was selected as a positive control, and 1 serum of normal mouse serum was selected as a negative control. Absorbance was determined at wavelength 450 nm (Bio-rad, Hercules, Calif. USA), and the index was shown by the following formula. Index={OD(specimen)−OD(negative control)}/{OD(positive control)−OD(negative control)}×100 A-2 (Living Cell Staining using Culture Mouse Keratinocyte PAM 212)

B1: anti-Dsg3 monoclonal antibody AK23 (antibody, mouse IgG1, V domains shown)
VH: QVQLQQSGTELVKPGASVKLSCKSSGYTFTSYWINWVKQRPGQGLEWIGNINPSNGGINYNEKFKSKATLTVDKSSSTAYMQLKSLTSEDSAVYYCARGGYDGYPWGQGTTVTVS
VL: DIQMTQSPKFLLVSAGDRVTITCKASQSVSYDVAWYQQKPGQSPKLLISYASNRYTGVPDRFTGSGYGSDFTFTISTVQTEDLAVYFCQQDYSSPWTFGGGTKLELKR
notes: Mouse IgG1 kappa hybridoma antibody
With B1, the binding result is on record as “binds” with Dsg3-M4, “no binding” with Dsg1-M1-2 and “binds” in test [1].
